# From the DeepSol protein solubility set
# Test: soluble on expression in E. coli; label from the status in PepcDB or PDB records
row,Sequence,soluble on expression in E. coli
1,MGSDKIHHHHHHMKWRGYLTPVTENYLHAYGVGYISYVLARKFHVDSVKAFVTGTLHDLGGAVPADERVTVAESIGISLNDEEREVPLLVHAKLGKYFAQTLFDITDEDMLNAILFHTTCIDRASDLVKIVFLADKIRWDRNGTPPYLDGLLAALEISLDDGCSYFLKWLWNSDLYIVHPYLSRSYGAYVRQQQYNPISLQDFSVLQGNLNENLVKKYYLHDIYQEFHRTFYHAHLASVLASKHSVNTEEAYVTSALVNMTNTIKDDELETIASVLNLNVQVPIRPQLTSILARDEYGITSLEMLKTLKSFPQIPSNHNSLLWVVVMSWICQKSIKCEVEDE,not soluble
2,MPDGQRVTKRSEDSRYFTVQPADTPGMANAQGYLPAHDAAGFDKRLDAIAATVCPNDPRTPDQRRADALGALGRYRDTLDCQCGREDCTAVAERDAVNNAMIHVLAEQSTLDGGNEPGYLPGFGMLPAHMVREVAKTATTKPVTIPKDKAQSGYRPNAELTEFIRWRDLTCRFPGCDAPAMAADIDHTRPLEHHHHHH,soluble
3,MGSIGSMGKPIEGFLVAAIQFPVPIVNSRKDIDHNIESIIRTLHATKAGYPGVELIIFPEYSTQGLNTAKWLSEEFLLDVPGKETELYAKACKEAKVYGVFSIMERNPDSNKNPYNTAIIIDPQGEIILKYRKLFPWNPIEPWYPGDLGMPVCEGPGGSKLAVCICHDGMIPELAREAAYKGCNVYIRISGYSTQVNDQWILTNRSNAWHNLMYTVSVNLAGYDNVFYYFGEGQICNFDGTTLVQGHRNPWEIVTGEIYPKMADNARLSWGLENNIYNLGHRGYVAKPGGEHDAGLTYIKDLAAGKYKLPWEDHMKIKDGSIYGYPTTGGRFGK,soluble
4,MNTLSSLLLALQQADSFFPGGAVAWSWGLETLVADGRLGAGERVTARRRQRAVRLDRSAAVRGFVEGQLRHRWHSFDRVFLLAAWNAADDVSALTNLDAQIEALTLAKELRQGSRRVGQALLGVHVALGTPGAAAYQQQVRAGNTPGHLPVLQGLLWNRLGMHREHCQLAAAHGLCTGLVSAAVRLGVMGHIDAQRVLTDIQPLITELLALEPPEPEDACGFTPMAEIAVMRHETQDLRLFANLEHHHHHH,soluble
5,SDLDYGGVPLWINRFLGEPSVLTLKDRIDPGWYRAVNTQSCPLECDCPIQWPTAIYCDHRGLNQLPSGLPFRLQYLFLQGNNITSLGSRAFDNTTYLRWLILDHNELLSEQLDNVLFSSLTRLVNLFINHNNLTKVPAGLPSGLKQLRLAYNHIEKISEGDFQNLDSLTLILLQGNRLKTIEEGDFKGLGALNLLDLSHNFLDTFPKHLPPSVQQLYLSNNSLTGLSENSLHAFSGLRYLRLGHNKLRNERLDPGAFNLTSLVELDLSYNRLTEIPSVPITLQYLYLEVNHIQEFNVSSFCRTVGPTSYSRMKILRLDGNKLEYHKLPPDWVFCLRVLHNIYI,soluble
6,MKALVAVSAVAVVALLGVSSAQADPEADPGAGEANYGGPPSSPRLVDHTEWAQWGSLPSLRVYPSQVGRTASRRLGMAAADAAWAEVLALSPEADTAGMRAQFICHWQYAEIRQPGKPSWNLEPWRPVVDDSEMLASGCNPGSPEESF,soluble
7,ASTTTPTLRLNWLQPPFNNQKVRQALLHAVSQRDYMDAQVGDPKAYRVCWAMFGCDSPLASTAGVVSQDDEADLNAAKALLKESGYKNEKAVVLHATDYPPTSAIAPFTAQILRSIGMKAEVQSMDWATFLTRRGKQDPVEKGGWSVAYGSWNTLDLMSPIANLNLDGRGKEGYAGWTESAEMESLRTQYAQATEPASRQQIAAKIQQLAYDQVFYIPLGTY,not soluble
8,MKSVTSAQRPYQEVGAMIHDLIIKTPYNPGERLPPEREIAEMLDVTRTVVREALIMLEIKGLVEVRRGAGIYVLDSSGSHNTDSPDANVCNDAGPFELLQARQLLESNIAEFAALQATREDIVKMRQALQLEERELASSAPGSSESGDMQFHLAIAEATHNSMLVELFRQSWQWRENNPMWIQLHSHLDDSLYRKEWLGDHKQILAALIKKDARAAKLAMWQHLENVKQRLLEFSNVDDIYFDGYLFDSWPLDKVDA,not soluble
9,MAAAGEEYSSDKIEERSLAAIDSMIDPDISGPMRHIVVKAIHAAGDFAIAPLIRYSDGFFKSMLAKLKEGCTIICDSEMVRAGIYSRPVLERNRVVCYLNDVRSKEMADVNGITRSAAGIRIAMQDHRNSVIVIGNAPTALLEAMRMIEENGWYDIPIVGIPVGFINASKAKEGLVSSHIEYISVEGHRGGSPIAASIVNGFGRFLA,soluble
10,MAHHHHHHMASYQYFSYIDLYKVNNVNLDPFTEVFNDKFYLRYIYKWPHMNIITKEIDDHTSGYILGKEEGFGQDYHGHVTALSIEEDSRRTGKGVDLMTEFEKITQIIHKGNFVDLFVRVSNNPAINMYKKLGYVINEEINNYYCGNESALDMRKYLDITNS,soluble
11,MGSDKIHHHHHHMKTQQERQPGKIATKFNQEKTREGKKLKIAVVAQDSQYPSTIQRFLAEADKSYPLISLIGGVQQVAAVAEQEQPDLLMLEGQYFSSMELETLNRVTSRFPDVGVVMLCPAQPPELLIEVMRAGVREVLPTPLTRHGVIDAVERFQQRIALSRMPMHECKVLAFIPCKGGSGATFLATNIAYALAAQENKRVALFDFNLQFGDASLFVQDGPPATSIADVARQIQRLDGSFLNSSMIQVLPNFGMLAAPESPEKAAEIRSEHINPLFQVAMKHYDFVILDVGRELDAISIQALDRADLIFPVLQQTLPSIRDARRMSAAFAALNYPDEKIRLIVNRYKKNADITLDDIESTLNLKIFKVVPNDYAVVTGSVNQGIPATKLAPRSPVAKSLQEIAHELCRGAGQGNLLRKLFAF,not soluble
12,MDYHSNGNGINGMNGSSRHSADGPSTPTHSGNGHSNGEGNSTYWETAPAEMVELADKYNFTINEGSSIQQEALELRSVIRKDLTKKLKIKSGYSRIKLITSDRRQSEFLRYELSDLNEQIADLQEDLQALEMYNSGAFDEDVMYLDNLEDCDVENGPPSKLVILQLELEKELKVKRGLEQFLRGAPDKSKVHGDSQSLLDDSRAKIAMLRMQIERLSQEAPAVEGEPKTKVELAIDDLIIRFHKEKLIMDGSRNMIRILRSKRKPDSKAVDEAMNSYVIASEKADLIKLALLKYASSLPLEHDHRKYLI,not soluble
13,MSLRSGVEMAQRFARYPGAVANAARLGAACAFDVRLIAPRLPDFPVPPGHTEMSYLRELAMRGAAEKYGPPHQRPDVYRQLDYELDVIEQLGFPGYFLVVWEIVEFCRSRGILCQGRGSAANSVVCYVLGITKADPIAFRLLFERFLSPERDGPPDIDVDIESGRREEVIQYVYSRYGRERAAQVATVITYRPRSAVRDMARALGYSPGQQDAWSKQLDRYGEIPRGSEADHDVPDDVVHLARQVLGFPRHLGIHSGGMVICDRPVAEVCPVEWARMPGRSVLQWDKDDCARIGVVKFDLLGLGMLSALRECFDLIETYHGVRLSLETIPPEDPAVYDMLCAADSVGVFQVESRAQMATLPRLQPRNFYDLVTEVAIIRPGPIQGGSVHPFIRRRRGREPVRYAHPLLRHSLERTYGVPLFQEQIMQMAIDVAGLTPAEADHLRQAMGAKREGHHHHHH,soluble
14,MLRFPENVVICDGKRILWNGLGLPENLVFEMARTVLESNVPLKGKIFCFPAQTVLGKMAIFTDEKTQGRDVLVELLNHELLRMRLYSEEVENLVEVLFNDWRPGKRVFIVRSKNFETRLSLREKLSSFADVIYNAGEIDVGIAPAGTLLQINEEKVSFSDPERDIKEAVRKALLIDRYVNEPFSFYEKLPAYNFSLNIQIPELVKIFLRTGDIQKTSELTEKNVEVVFREILKFEKKTLLSPRIPVEAFLILKGGLD,not soluble
15,MKLGVIAAMDLELQKLLEYFPPQRKIQLAKNTFYIYEQKTSQVIMVCAGQGKTNATLYSQILIDSFQIEQLINIGICGCLNEKLQLFEMVLGEEYCHYDIRERQSINKFPYQLYYKGDKGMLAELQHLDEKIKCVRFGTGEGFVCDTTEKRNLIEQFSIDCVDMESAAIAQCCFLNDCAFVSIRIICDRADANAVKVTEDTQTQAMEKVFELVCAYIN,not soluble
16,MADTFFFTPSRRLTVANVAELTGAKLLNPEFSNTVINTLSSLESAGKGSLVFVEHRKFSDALVGSSAVAVFCTNEIVFKVPESMAILVTSTPQRDFAQIGRILFPDSVKPMPWFGQREISPHAHIHPSAKLAGDVCIEAGAVIGRNVEIGSGSLIASTAVIGENCRIGCDCYIAPKVTVQYSLIGDKVHLYPGACIGQDGFGYIGGASGIEKVPQLGRVIIEDGVEIGANTTIDRGTFEDTIIGEGSKIDNLVQIAHNVKIGRYCLIAAQCGIAGSTSIGDMSQLGGSVGVADHIVIGKYVQIAAGSGVMNDIPDGEKWGGSPARPFKQWFREVAALRSIGKVKKEKR,not soluble
